PMC11352552
One block for each molecule: values may come before it.

Biological target: T1, recombinant human PSGL-1 Fc fusion protein (human)
T1 sequence (Q14242 whole entry, looked up): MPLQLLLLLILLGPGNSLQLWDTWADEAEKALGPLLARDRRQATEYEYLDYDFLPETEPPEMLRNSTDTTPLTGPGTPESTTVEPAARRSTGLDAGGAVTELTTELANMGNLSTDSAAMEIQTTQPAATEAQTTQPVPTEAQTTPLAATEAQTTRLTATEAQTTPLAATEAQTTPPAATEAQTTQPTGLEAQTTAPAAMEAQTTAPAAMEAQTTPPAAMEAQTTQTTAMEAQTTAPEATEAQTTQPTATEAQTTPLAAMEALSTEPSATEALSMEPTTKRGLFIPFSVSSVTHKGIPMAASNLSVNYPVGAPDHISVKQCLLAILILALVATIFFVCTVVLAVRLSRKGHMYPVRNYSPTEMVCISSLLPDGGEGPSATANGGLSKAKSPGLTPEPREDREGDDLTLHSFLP
Assay: ELISA; EC50 of biotinylated P- and L-selectin binding to PSGL-1; the titration itself is not described, the values are given in the competition protocol

EC50: 1 nM
Molecule: biotinylated P-selectin (from UniProt P16109 42-771) (natural protein)

EC50: 40 nM
B1: biotinylated L-selectin (natural protein)
chain: WTYHYSEKPMNWQRARRFCRDNYTDLVAIQNKAEIEYLEKTLPFSRSYYWIGIRKIGGIWTWVGTNKSLTEEAENWGDGEPNNKKNKEDCVEIYIKRNKDAGKWNDDACHKLKAALCYTASCQPWSCSGHGECVEIINNYTCNCDVGYYGPQCQFVIQCEPLEAPELGTMDCTHPLGNFSFSSQCAFSCSEGTNLTGIEETTCGPFGNWSSPEPTCQVIQCEPLSAPDLGIMNCSHPLASFSFTSACTFICSEGTELIGKKKTICESSGIWSNPSPICQKLDKSFSMIKEGDYN
modifications: biotinylated
